These results are taken from patent US20230357348A1 (AstraZeneca / MedImmune, published 2023).

Starred links: 1 amine or outer side, 2 acyl side, 3 side chain; linkers in the order of their positions; H or OH if unused. Non-standard residues stand in square brackets, D forms with d. Groups on a side chain read outwards from the residue. No end group written: not given here. *: point of attachment. C20 diacid = O=C(O)CCCCCCCCCCCCCCCCCCC(=O)*; C18 diacid = O=C(O)CCCCCCCCCCCCCCCCC(=O)*; γGlu = O=C(O)[C@H](CCC(=O)[*:2])N[*:1]; αMeF = C[C@](N)(Cc1ccccc1)C(=O)O; AEEA = NCCOCCOCC(=O)O; Aib = CC(C)(N)C(=O)O

Common to all, as to experiment: cell-based or functional assay
Test [1] deals with human GLP-1 receptor (human, UniProt P43220 24-463).
Test [2] addresses human glucagon receptor (human, UniProt P47871 26-477).
For test [3], the target named is human glucagon receptor (hGCGR) (human, UniProt P47871 26-477).
Test [4] deals with human GLP-1 receptor (hGLP-1R) (human, UniProt P43220 24-463).

Sequence of human glucagon receptor (P47871 26-477): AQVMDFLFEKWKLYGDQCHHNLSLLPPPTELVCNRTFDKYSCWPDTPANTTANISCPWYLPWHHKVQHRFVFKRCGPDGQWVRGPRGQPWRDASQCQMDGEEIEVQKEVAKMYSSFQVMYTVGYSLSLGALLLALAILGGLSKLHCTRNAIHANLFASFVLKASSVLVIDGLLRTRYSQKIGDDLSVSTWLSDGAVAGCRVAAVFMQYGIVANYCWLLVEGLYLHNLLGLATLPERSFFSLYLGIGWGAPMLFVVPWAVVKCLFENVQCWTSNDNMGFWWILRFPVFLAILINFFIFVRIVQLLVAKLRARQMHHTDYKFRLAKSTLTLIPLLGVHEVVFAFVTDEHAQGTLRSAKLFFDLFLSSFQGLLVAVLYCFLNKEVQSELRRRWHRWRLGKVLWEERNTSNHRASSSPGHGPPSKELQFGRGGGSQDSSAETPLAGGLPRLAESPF
Sequence of human glucagon receptor (hGCGR) (P47871 26-477): as above

In the case of H[Aib]QGTFTSDVSK[αMeF]LDSRAAKDFVQWIANT-NH2 (not fully specified (residue 20)) [Peptide 343], the “hGLP-1R EC50 (pM), cAMP” value in test [1] came out at 198 pM. In test [2], the “hGluc-R EC50 (pM), cAMP” value was 19600 pM.

Take H[Aib]QGTFTSDVSE[αMeF]LDSERAK([AEEA-AEEA-γGlu-C18 diacid])DFVRWLEAGG-OH (not fully specified) [Peptide 524]: the “hGLP-1R EC50 (pM), cAMP” value in test [1] amounted to 366 pM. In test [2], the “hGluc-R EC50 (pM), cAMP” value is above 24400 pM.

B1: Peptide 340 (peptide)
peptide: H[Aib]QGTFTSDYSK[αMeF]LDSRRAK([γGlu-C18 diacid])DFVQWLL[Aib]E-OH
modifications: N-terminus assumed
SMILES: CC(C)C[C@H](NC(=O)[C@H](Cc1c[nH]c2ccccc12)NC(=O)[C@H](CCC(N)=O)NC(=O)[C@@H](NC(=O)[C@H](Cc1ccccc1)NC(=O)[C@H](CC(=O)O)NC(=O)[C@H](CCCCNC(=O)CC[C@H](NC(=O)CCCCCCCCCCCCCCCCC(=O)O)C(=O)O)NC(=O)[C@H](C)NC(=O)[C@H](CCCNC(=N)N)NC(=O)[C@H](CCCNC(=N)N)NC(=O)[C@H](CO)NC(=O)[C@H](CC(=O)O)NC(=O)[C@H](CC(C)C)NC(=O)[C@](C)(Cc1ccccc1)NC(=O)[C@H](CCCCN)NC(=O)[C@H](CO)NC(=O)[C@H](Cc1ccc(O)cc1)NC(=O)[C@H](CC(=O)O)NC(=O)[C@H](CO)NC(=O)[C@@H](NC(=O)[C@H](Cc1ccccc1)NC(=O)[C@@H](NC(=O)CNC(=O)[C@H](CCC(N)=O)NC(=O)C(C)(C)NC(=O)[C@@H](N)Cc1c[nH]cn1)[C@@H](C)O)[C@@H](C)O)C(C)C)C(=O)N[C@@H](CC(C)C)C(=O)NC(C)(C)C(=O)N[C@@H](CCC(=O)O)C(=O)O
In the case of B1, in test [1], the “hGLP-1R EC50 (pM), cAMP” value is 312 pM. In addition, the “hGluc-R EC50 (pM), cAMP” value in test [2] was determined as 94.7 pM.

B2: Peptide 526 (peptide)
peptide: H[Aib]QGTFTSDVSK[αMeF]LDSERAK([AEEA-AEEA-γGlu-C18 diacid])DFVAWLEA[Aib]G-OH
modifications: N-terminus assumed
SMILES: CC(C)C[C@H](NC(=O)[C@H](Cc1c[nH]c2ccccc12)NC(=O)[C@H](C)NC(=O)[C@@H](NC(=O)[C@H](Cc1ccccc1)NC(=O)[C@H](CC(=O)O)NC(=O)[C@H](CCCCNC(=O)COCCOCCNC(=O)COCCOCCNC(=O)CC[C@H](NC(=O)CCCCCCCCCCCCCCCCC(=O)O)C(=O)O)NC(=O)[C@H](C)NC(=O)[C@H](CCCNC(=N)N)NC(=O)[C@H](CCC(=O)O)NC(=O)[C@H](CO)NC(=O)[C@H](CC(=O)O)NC(=O)[C@H](CC(C)C)NC(=O)[C@](C)(Cc1ccccc1)NC(=O)[C@H](CCCCN)NC(=O)[C@H](CO)NC(=O)[C@@H](NC(=O)[C@H](CC(=O)O)NC(=O)[C@H](CO)NC(=O)[C@@H](NC(=O)[C@H](Cc1ccccc1)NC(=O)[C@@H](NC(=O)CNC(=O)[C@H](CCC(N)=O)NC(=O)C(C)(C)NC(=O)[C@@H](N)Cc1c[nH]cn1)[C@@H](C)O)[C@@H](C)O)C(C)C)C(C)C)C(=O)N[C@@H](CCC(=O)O)C(=O)N[C@@H](C)C(=O)NC(C)(C)C(=O)NCC(=O)O
For B2, the “hGLP-1R EC50 (pM), cAMP” value in test [1] came to 194 pM. Besides, the “hGluc-R EC50 (pM), cAMP” value in test [2] came to 690 pM.

On to H[Aib]HGS[αMeF]TSDVSK[αMeF]LDSRAAQD[αMeF]VK([AEEA-AEEA-γGlu-C18 diacid])SIANT-NH2 (not fully specified) [Peptide 379], for which the “hGluc-R EC50 (pM); cAMP production” value in test [3] was 85.7 pM. Also, the “hGLP-1R EC50 (pM); cAMP production” value in test [4] came to 71.8 pM.

As to HXHGTFTSDVSKXLDSQAAQDFVXWIANT (Aib at 2; αMePhe at 13; K(γE-C18diacid)24; C-terminal amide) [Peptide 346], the “hGLP-1R EC50 (pM); cAMP production” value in test [4] was 7320 pM.

B3: Peptide 523 (peptide)
peptide: H[Aib]QGTFTSDVSK[αMeF]LDSERAK([AEEA-AEEA-γGlu-C20 diacid])DFVAWLEAGG-OH
modifications: N-terminus assumed
SMILES: CC(C)C[C@H](NC(=O)[C@H](Cc1c[nH]c2ccccc12)NC(=O)[C@H](C)NC(=O)[C@@H](NC(=O)[C@H](Cc1ccccc1)NC(=O)[C@H](CC(=O)O)NC(=O)[C@H](CCCCNC(=O)COCCOCCNC(=O)COCCOCCNC(=O)CC[C@H](NC(=O)CCCCCCCCCCCCCCCCCCC(=O)O)C(=O)O)NC(=O)[C@H](C)NC(=O)[C@H](CCCNC(=N)N)NC(=O)[C@H](CCC(=O)O)NC(=O)[C@H](CO)NC(=O)[C@H](CC(=O)O)NC(=O)[C@H](CC(C)C)NC(=O)[C@](C)(Cc1ccccc1)NC(=O)[C@H](CCCCN)NC(=O)[C@H](CO)NC(=O)[C@@H](NC(=O)[C@H](CC(=O)O)NC(=O)[C@H](CO)NC(=O)[C@@H](NC(=O)[C@H](Cc1ccccc1)NC(=O)[C@@H](NC(=O)CNC(=O)[C@H](CCC(N)=O)NC(=O)C(C)(C)NC(=O)[C@@H](N)Cc1c[nH]cn1)[C@@H](C)O)[C@@H](C)O)C(C)C)C(C)C)C(=O)N[C@@H](CCC(=O)O)C(=O)N[C@@H](C)C(=O)NCC(=O)NCC(=O)O
On to B3, for which, in test [1], the “hGLP-1R EC50 (pM), cAMP” value came to 615 pM. The “hGluc-R EC50 (pM), cAMP” value in test [2] is above 24700 pM.

Turning to HXHGSXTSDVSKXLDSQAAQDFVXWIANT (Aib at 2; αMePhe at 6 and 13; K(O2Oc-O2Oc-γE-C18diacid)24; C-terminal amide) [Peptide 358], in test [4], the “hGLP-1R EC50 (pM); cAMP production” value amounted to 74.9 pM.

B4: Peptide 525 (peptide)
peptide: H[Aib]QGTFTSDVSK[αMeF]LDSERAK([AEEA-AEEA-γGlu-C18 diacid])DFVQWLEA[Aib]G-OH
modifications: N-terminus assumed
SMILES: CC(C)C[C@H](NC(=O)[C@H](Cc1c[nH]c2ccccc12)NC(=O)[C@H](CCC(N)=O)NC(=O)[C@@H](NC(=O)[C@H](Cc1ccccc1)NC(=O)[C@H](CC(=O)O)NC(=O)[C@H](CCCCNC(=O)COCCOCCNC(=O)COCCOCCNC(=O)CC[C@H](NC(=O)CCCCCCCCCCCCCCCCC(=O)O)C(=O)O)NC(=O)[C@H](C)NC(=O)[C@H](CCCNC(=N)N)NC(=O)[C@H](CCC(=O)O)NC(=O)[C@H](CO)NC(=O)[C@H](CC(=O)O)NC(=O)[C@H](CC(C)C)NC(=O)[C@](C)(Cc1ccccc1)NC(=O)[C@H](CCCCN)NC(=O)[C@H](CO)NC(=O)[C@@H](NC(=O)[C@H](CC(=O)O)NC(=O)[C@H](CO)NC(=O)[C@@H](NC(=O)[C@H](Cc1ccccc1)NC(=O)[C@@H](NC(=O)CNC(=O)[C@H](CCC(N)=O)NC(=O)C(C)(C)NC(=O)[C@@H](N)Cc1c[nH]cn1)[C@@H](C)O)[C@@H](C)O)C(C)C)C(C)C)C(=O)N[C@@H](CCC(=O)O)C(=O)N[C@@H](C)C(=O)NC(C)(C)C(=O)NCC(=O)O
In the case of B4, the “hGLP-1R EC50 (pM), cAMP” value in test [1] worked out at 177 pM. Besides, the “hGluc-R EC50 (pM), cAMP” value in test [2] was 2450 pM.

B5: Peptide 522 (peptide)
peptide: H[Aib]QGTFTSDVSK[αMeF]LDSERAK([AEEA-AEEA-γGlu-C18 diacid])DFVAWLEAGG-OH
modifications: N-terminus assumed
SMILES: CC(C)C[C@H](NC(=O)[C@H](Cc1c[nH]c2ccccc12)NC(=O)[C@H](C)NC(=O)[C@@H](NC(=O)[C@H](Cc1ccccc1)NC(=O)[C@H](CC(=O)O)NC(=O)[C@H](CCCCNC(=O)COCCOCCNC(=O)COCCOCCNC(=O)CC[C@H](NC(=O)CCCCCCCCCCCCCCCCC(=O)O)C(=O)O)NC(=O)[C@H](C)NC(=O)[C@H](CCCNC(=N)N)NC(=O)[C@H](CCC(=O)O)NC(=O)[C@H](CO)NC(=O)[C@H](CC(=O)O)NC(=O)[C@H](CC(C)C)NC(=O)[C@](C)(Cc1ccccc1)NC(=O)[C@H](CCCCN)NC(=O)[C@H](CO)NC(=O)[C@@H](NC(=O)[C@H](CC(=O)O)NC(=O)[C@H](CO)NC(=O)[C@@H](NC(=O)[C@H](Cc1ccccc1)NC(=O)[C@@H](NC(=O)CNC(=O)[C@H](CCC(N)=O)NC(=O)C(C)(C)NC(=O)[C@@H](N)Cc1c[nH]cn1)[C@@H](C)O)[C@@H](C)O)C(C)C)C(C)C)C(=O)N[C@@H](CCC(=O)O)C(=O)N[C@@H](C)C(=O)NCC(=O)NCC(=O)O
B5: the “hGLP-1R EC50 (pM), cAMP” value in test [1] was 508 pM. Further, the “hGluc-R EC50 (pM), cAMP” value in test [2] turned out to be 6360 pM.

B6: Peptide 362 (peptide)
peptide: H[Aib]HGS[αMeF]TSDVSK[αMeF]LDSRAAQDFVK([AEEA-AEEA-γGlu-γGlu-C18 diacid])WIANT-NH2
modifications: N-terminus assumed
SMILES: CC[C@H](C)[C@H](NC(=O)[C@H](Cc1c[nH]c2ccccc12)NC(=O)[C@H](CCCCNC(=O)COCCOCCNC(=O)COCCOCCNC(=O)CC[C@H](NC(=O)CC[C@H](NC(=O)CCCCCCCCCCCCCCCCC(=O)O)C(=O)O)C(=O)O)NC(=O)[C@@H](NC(=O)[C@H](Cc1ccccc1)NC(=O)[C@H](CC(=O)O)NC(=O)[C@H](CCC(N)=O)NC(=O)[C@H](C)NC(=O)[C@H](C)NC(=O)[C@H](CCCNC(=N)N)NC(=O)[C@H](CO)NC(=O)[C@H](CC(=O)O)NC(=O)[C@H](CC(C)C)NC(=O)[C@](C)(Cc1ccccc1)NC(=O)[C@H](CCCCN)NC(=O)[C@H](CO)NC(=O)[C@@H](NC(=O)[C@H](CC(=O)O)NC(=O)[C@H](CO)NC(=O)[C@@H](NC(=O)[C@](C)(Cc1ccccc1)NC(=O)[C@H](CO)NC(=O)CNC(=O)[C@H](Cc1c[nH]cn1)NC(=O)C(C)(C)NC(=O)[C@@H](N)Cc1c[nH]cn1)[C@@H](C)O)C(C)C)C(C)C)C(=O)N[C@@H](C)C(=O)N[C@@H](CC(N)=O)C(=O)N[C@H](C(N)=O)[C@@H](C)O
With B6, the “hGluc-R EC50 (pM); cAMP production” value in test [3] was 42.8 pM.
